The subject of data set [1] is OPM2-luc cells. In words: BCMAxCD3 mediated cell killing with human T cells, with or without GSI (luciferase viability). As to conditions: with or without 1 μM GSI, 60 hours. The class given is cell-based. The method, then: (§1) CD3^+ T cells from PBMCs (Stem Cell Technologies) were negatively selected using EasySep Human T cell enrichment kit (Stem Cell Technologies). Multiple myeloma cells expressing luciferase (MM.1S-luc, OPM2-luc, H929-luc, Molp8-luc, RPMI8226-luc) were treated with 1 μM GSI […]. After 24 hours, cells were seeded with 50,000 CD3^+ pan T cells in a clear 96-well V-bottom plate. Cells were further treated with a range of BCMAxCD3 bispecific antibody concentrations with or without 1 μM GSI. 60 hours after treatment, luciferase activity in treated cells was analyzed using NeoLite reagent kit (Perkin Elmer) and acquired on VictorX multimode plate reader (Perkin Elmer). Cell viability was calculated by dividing luciferase activity of treated cells over luciferase activity of untreated control (no BCMAxCD3 bispecific antibody added).

Data set [2] deals with MM.1S-luc cells. The description is as above. As to conditions: with or without 1 μM GSI, 60 hours. The class given is cell-based. The method, then:
as §1

Data set [3] can be described thus: Phase 1 clinical study NCT03269136, preliminary pharmacokinetic analysis. The class given is in vivo, human. The conditions noted are these: preliminary pharmacokinetic (PK) analysis. Here is the method:
Therefore, a fixed dose is suitable for the dosing of PF-06863135. Based on the encouraging efficacy data and safety data obtained from Part I of Study, a promising RP2D for Part 2A of the study could be a fixed dose equivalent of 1000 μg/kg (ie, 76 mg) of PF-06863135 either in Q1W or Q2W. A fixed dose equivalent of 600 μg/kg (ie, 44 mg) will likely be used as a priming dose on cycle zero day 1. The initial dose of 44 mg serves as a priming dose and is designed to mitigate the CRS symptoms of the later 76 mg dose. […] Subsequently, the 44 mg (priming) and 76 mg (maintenance) were selected as the single agent RP2D dose. Patient will be administered a single priming dose of 44 mg SC of PF06863135, followed by maintenance dosing of 76 mg Q1W SC or 76 mg Q2W starting 7 days after the single priming dose.

As to “PF-06863135: heterodimeric humanized full-length bispecific antibody, one BCMA binding arm and one CD3 binding arm, modified human IgG2Δa Fc”, the OPM2 cell viability in data set [1] (BCMA × CD3 0.00064 nM) is reported as 83.8 ± 3.4 % control; in data set [1] (BCMA × CD3 0.0032 nM), 84.3 ± 3.1 % control; in data set [1] (BCMA × CD3 0.016 nM) it was 68.4 ± 2.4 % control; in data set [1] (BCMA × CD3 0.08 nM), 43.6 ± 6.4 % control; in data set [1] (BCMA × CD3 0.4 nM), 3.1 ± 0.8 % control; in data set [1] (BCMA × CD3 2 nM) it was 2.8 ± 0.8 % control. Further, the OPM2 cell viability in data set [1] (BCMA × CD3 10 nM) was determined as 2 ± 0.2 % control; in data set [1] (BCMA × CD3 50 nM) it was 3.3 ± 0.3 % control. The MM.1S cell viability in data set [2] (BCMAxCD3 0.00001 nM) is reported as 80.6 ± 3.9 % control; in data set [2] (BCMAxCD3 0.00005 nM), 79.8 ± 2.9 % control; in data set [2] (BCMAxCD3 0.00026 nM), 78 ± 0.9 % control; in data set [2] (BCMAxCD3 0.00128 nM) it was 87.7 ± 4.4 % control; in data set [2] (BCMAxCD3 0.0064 nM), 108 ± 4.5 % control; in data set [2] (BCMAxCD3 0.032 nM), 2.5 ± 0.3 % control. The MM.1S cell viability in data set [2] (BCMAxCD3 0.16 nM) is reported as 1.7 ± 0.8 % control; in data set [2] (BCMAxCD3 0.8 nM), 2.4 ± 0.5 % control; in data set [2] (BCMAxCD3 4 nM) it was 1.3 ± 0.8 % control. Further, in data set [3], the “body weight as factor on PF-06863135 exposure” value is “not a clinically relevant factor”.

Source of the values: patent US20230340137A1, “METHODS, THERAPIES AND USES FOR TREATING CANCER” (PFIZER INC., priority 2020, published 2023).
